Results taken from paper PMC3580015 (Archives of biochemistry and biophysics, 2013).
“And” between values parts separate entries of the source, which are not always exact repeats. Equal values may be shown once.

Target: the molecule itself
Experiment: native gel or EMSA

Protein	stoichiometry N
full length rat phenylalanine hydroxylase (PAH) (enzyme, UniProt P04176 1-453, looked up) MAAVVLENGVLSRKLSDFGQETSYIEDNSNQNGAISLIFSLKEEVGALAKVLRLFEENDINLTHIESRPSRLNKDEYEFFTYLDKRTKPVLGSIIKSLRNDIGATVHELSRDKEKNTVPWFPRTIQELDRFANQILSYGAELDADHPGFKDPVYRARRKQFADIAYNYRHGQPIPRVEYTEEEKQTWGTVFRTLKALYKTHACYEHNHIFPLLEKYCGFREDNIPQLEDVSQFLQTCTGFRLRPVAGLLSSRDFLGGLAFRVFHCTQYIRHGSKPMYTPEPDICHELLGHVPLFSDRSFAQFSQEIGLASLGAPDEYIEKLATIYWFTVEFGLCKEGDSIKAYGAGLLSSFGELQYCLSDKPKLLPLELEKTACQEYSVTEFQPLYYVAESFSDAKEKVRTFAATIPRPFSVRYDPYTQRVEVLDNTQQLKILADSINSEVGILCNALQKIKS	4 and 2
full length human phenylalanine hydroxylase (PAH) (enzyme, UniProt P00439 1-452, looked up) MSTAVLENPGLGRKLSDFGQETSYIEDNCNQNGAISLIFSLKEEVGALAKVLRLFEENDVNLTHIESRPSRLKKDEYEFFTHLDKRSLPALTNIIKILRHDIGATVHELSRDKKKDTVPWFPRTIQELDRFANQILSYGAELDADHPGFKDPVYRARRKQFADIAYNYRHGQPIPRVEYMEEEKKTWGTVFKTLKSLYKTHACYEYNHIFPLLEKYCGFHEDNIPQLEDVSQFLQTCTGFRLRPVAGLLSSRDFLGGLAFRVFHCTQYIRHGSKPMYTPEPDICHELLGHVPLFSDRSFAQFSQEIGLASLGAPDEYIEKLATIYWFTVEFGLCKQGDSIKAYGAGLLSSFGELQYCLSEKPKLLPLELEKTAIQNYTVTEFQPLYYVAESFNDAKEKVRNFAATIPRPFSVRYDPYTQRIEVLDNTQQLKILADSINSEIGILCSALQKIK	4 and 2
